From publication PMC8928829

Target: NIH-CoVnb-112
Assay: BLI

Sequence of NIH-CoVnb-112 (heavy, as listed by the source): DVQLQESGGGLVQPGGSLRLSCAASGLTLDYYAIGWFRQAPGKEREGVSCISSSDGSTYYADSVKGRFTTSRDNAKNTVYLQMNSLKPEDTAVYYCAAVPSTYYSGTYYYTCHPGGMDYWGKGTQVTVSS

With “SARS-CoV-2 RBD K417N (from UniProt P0DTC2) (domain or fragment)” the Kd was 1.42 nM.
“SARS-CoV-2 RBD L452R (from UniProt P0DTC2) (domain or fragment)” gave a Kd of 4.88 nM.
With “SARS-CoV-2 RBD T478K (from UniProt P0DTC2) (domain or fragment)” the Kd was 0.497 nM.
